Measured values as given in IntAct's records for PubMed 8840966.

B1: Cyclin-dependent kinase 4 inhibitor C (Homo sapiens), P42773 (parent)
chain: MAEPWGNELASAAARGDLEQLTSLLQNNVNVNAQNGFGRTALQVMKLGNPEIARRLLLRGANPDLKDRTGFAVIHDAARAGFLDTLQTLLEFQADVNIEDNEGNLPLHLAAKEGHLRVVEFLVKHTASNVGHRNHKGDTACDLARLYGRNEVVSLMQANGAGGATNLQ

Variants of: B1
Conditions: with cdk6_human CDK6, Q00534
Sequence of cdk6_human CDK6, Q00534 (Q00534 whole entry): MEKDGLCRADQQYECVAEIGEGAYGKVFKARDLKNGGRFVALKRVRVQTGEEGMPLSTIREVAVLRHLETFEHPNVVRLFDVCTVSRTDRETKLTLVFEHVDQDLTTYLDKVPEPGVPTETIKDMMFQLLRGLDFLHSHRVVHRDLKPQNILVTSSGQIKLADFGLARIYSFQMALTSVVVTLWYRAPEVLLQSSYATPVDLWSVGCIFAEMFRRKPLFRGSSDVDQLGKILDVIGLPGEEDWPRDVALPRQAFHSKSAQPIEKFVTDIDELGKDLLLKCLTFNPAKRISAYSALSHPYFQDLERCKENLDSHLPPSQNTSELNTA

effect of a mutation on the interaction	Variant
disrupting interaction	MAEPWGNELASAAARGDLEQLTSLLQNNVNVNAQNGFGRTALQVMKLGNPEIARRLLLRGANPDLKDRTGFPVIHDAARAGFLDTLQTLLEFQADVNIEDNEGNLPLHLAAKEGHLRVVEFLVKHTASNVGHRNHKGDTACDLARLYGRNEVVSLMQANGAGGATNLQ
